Sequences and labels used below:
B1: SEQ ID NO 8 (peptide)
peptide: Ac-[Pen][NMeR]SDTL[Pen][1Nal][dE][dK]-NH2
modifications: disulfide 1-7 (inferred)
B2: SEQ ID NO 15 (peptide)
peptide: Ac-[Pen][NMeR]SDTL[Pen][2Nal]E[dNMeK]-NH2
modifications: disulfide 1-7
SMILES: CC(=O)N[C@@H]1C(=O)N(C)[C@@H](CCCNC(=N)N)C(=O)N[C@@H](CO)C(=O)N[C@@H](CC(=O)O)C(=O)N[C@@H]([C@@H](C)O)C(=O)N[C@@H](CC(C)C)C(=O)N[C@H](C(=O)N[C@@H](Cc2ccc3ccccc3c2)C(=O)N[C@@H](CCC(=O)O)C(=O)N(C)[C@H](CCCCN)C(N)=O)C(C)(C)SSC1(C)C
B3: SEQ ID NO 51 (peptide)
peptide: Ac-[Pen][NMeR]SDTL[Pen]W[Aic][dK]-NH2
modifications: disulfide 1-7
SMILES: CC(=O)N[C@@H]1C(=O)N(C)[C@@H](CCCNC(=N)N)C(=O)N[C@@H](CO)C(=O)N[C@@H](CC(=O)O)C(=O)N[C@@H]([C@@H](C)O)C(=O)N[C@@H](CC(C)C)C(=O)N[C@H](C(=O)N[C@@H](Cc2c[nH]c3ccccc23)C(=O)NC2(C(=O)N[C@H](CCCCN)C(N)=O)Cc3ccccc3C2)C(C)(C)SSC1(C)C
B4: SEQ ID NO 50 (peptide)
peptide: Ac-[Pen][NMeR]SDTL[Pen][2Nal][hPhe][dK]-NH2
modifications: disulfide 1-7
SMILES: CC(=O)N[C@@H]1C(=O)N(C)[C@@H](CCCNC(=N)N)C(=O)N[C@@H](CO)C(=O)N[C@@H](CC(=O)O)C(=O)N[C@@H]([C@@H](C)O)C(=O)N[C@@H](CC(C)C)C(=O)N[C@H](C(=O)N[C@@H](Cc2ccc3ccccc3c2)C(=O)N[C@@H](CCc2ccccc2)C(=O)N[C@H](CCCCN)C(N)=O)C(C)(C)SSC1(C)C
B5: SEQ ID NO 105 (peptide)
peptide: Ac-[Pen][NMeR]SDTL[Pen]W[Phe(4-COOH)][dK]-NH2
modifications: disulfide 1-7 (inferred); also: dimer via DIG
B6: SEQ ID NO 97 (peptide)
peptide: Ac-[Pen][NMeR]SDTL[Pen]WE[Dab]-NH2
modifications: disulfide 1-7 (inferred); also: homodimer linked by DIG
B7: SEQ ID NO 103 (peptide)
peptide: Ac-[Pen][NMeR]SDTL[Pen][Phe(4-OMe)][dE][dK]-NH2
modifications: disulfide 1-7 (inferred); also: dimer via DIG
B8: SEQ ID NO 109 (peptide)
peptide: Ac-[Pen][NMeR]SDTL[Pen]W[Tic][dK]-NH2
modifications: disulfide 1-7 (inferred); also: dimer via DIG
B9: SEQ ID NO 96 (peptide)
peptide: Ac-[Pen][NMeR]SDTL[Pen]W[dP]K-NH2
modifications: disulfide 1-7 (inferred); also: homodimer linked by DIG
B10: SEQ ID NO 102 (peptide)
peptide: Ac-[Pen][NMeR]SDTL[Pen][Phe(3,4-Cl)][dE][dK]-NH2
modifications: disulfide 1-7 (inferred); also: dimer via DIG
B11: SEQ ID NO 113 (peptide)
peptide: Ac-[Pen][NMeR]SDTL[Pen][1Nal][dL][dK]-NH2
modifications: disulfide 1-7 (inferred); also: homodimer via DIG
B12: SEQ ID NO 100 (peptide)
peptide: Ac-[Pen][NMeR]SDTL[Pen][Phe(4-COOH)][dE][dK]-NH2
modifications: disulfide 1-7 (inferred); also: dimer via DIG
B13: SEQ ID NO 106 (peptide)
peptide: Ac-[Pen][NMeR]SDTL[Pen][Phe(4-tBu)][dE][dK]-NH2
modifications: disulfide 1-7 (inferred); also: dimer via DIG
B14: SEQ ID NO 104 (peptide)
peptide: Ac-[Pen][NMeR]SDTL[Pen]W[dH][dK]-NH2
modifications: disulfide 1-7 (inferred); also: dimer via DIG
B15: SEQ ID NO 83 (peptide)
peptide: Ac-[Pen][NMeR]SDTL[Pen]WN[dK]-NH2
modifications: disulfide 1-7 (inferred); also: homodimer linked by DIG
B16: SEQ ID NO 114 (peptide)
peptide: Ac-[Pen][NMeR]SDTL[Pen][1Nal][dR][dK]-NH2
modifications: disulfide 1-7 (inferred); also: homodimer via DIG
B17: SEQ ID NO 95 (peptide)
peptide: Ac-[Pen][NMeR]SDTL[Pen]WPK-NH2
modifications: disulfide 1-7 (inferred); also: homodimer linked by DIG
B18: SEQ ID NO 99 (peptide)
peptide: Ac-[Pen][NMeR]SDTL[Pen][Phe(3-carbamoyl)][dE][dK]-NH2
modifications: disulfide 1-7 (inferred); also: homodimer linked by DIG
B19: SEQ ID NO 7 (peptide)
peptide: [Pen][NMeR]SDTL[Pen][dF]-NH2
modifications: disulfide 1-7 (inferred); not fully specified (N-terminus); printed as DIG-NH2-Pen-(N-Me-R)-S-D-T-L-Pen-f-NH2, disulfide; also: DIG-NH2 at N-terminus, probably DIG-linked dimer
B20: SEQ ID NO 87 (peptide)
peptide: Ac-[Pen][NMeR]SDTL[Pen]WD[dK]-NH2
modifications: disulfide 1-7 (inferred); also: homodimer linked by DIG
B21: SEQ ID NO 91 (peptide)
peptide: Ac-[Pen][NMeR]SDTL[Pen]W[dF][dK]-NH2
modifications: disulfide 1-7 (inferred); also: homodimer linked by DIG
B22: SEQ ID NO 112 (peptide)
peptide: Ac-[Pen][NMeR]SDTL[Pen][1Nal][dH][dK]-NH2
modifications: disulfide 1-7 (inferred); also: homodimer via DIG
B23: SEQ ID NO 110 (peptide)
peptide: Ac-[Pen][NMeR]SDTL[Pen]W[dW][dK]-NH2
modifications: disulfide 1-7 (inferred); also: dimer via DIG
B24: SEQ ID NO 108 (peptide)
peptide: Ac-[Pen][NMeR]SDTL[Pen][Bip][dE][dK]-NH2
modifications: disulfide 1-7 (inferred); also: dimer via DIG
B25: SEQ ID NO 111 (peptide)
peptide: Ac-[Pen][NMeR]SDTL[Pen][1Nal][dF][dK]-NH2
modifications: disulfide 1-7 (inferred); also: dimer via DIG
B26: SEQ ID NO 92 (peptide)
peptide: Ac-[Pen][NMeR]SDTL[Pen]W[dY][dK]-NH2
modifications: disulfide 1-7 (inferred); also: homodimer linked by DIG
B27: SEQ ID NO 85 (peptide)
peptide: Ac-[Pen][NMeR]SDTL[Pen]WF[dK]-NH2
modifications: disulfide 1-7 (inferred); also: homodimer linked by DIG
B28: SEQ ID NO 84 (peptide)
peptide: Ac-[Pen][NMeR]SDTL[Pen]W[Cit][dK]-NH2
modifications: disulfide 1-7 (inferred); also: homodimer linked by DIG
B29: SEQ ID NO 93 (peptide)
peptide: Ac-[Pen][NMeR]SDTLC[Tic][dE][dK]-NH2
modifications: disulfide 1-7 (inferred); also: homodimer linked by DIG
B30: SEQ ID NO 101 (peptide)
peptide: Ac-[Pen][NMeR]SDTL[Pen][Phe(2,4-Cl)][dE][dK]-NH2
modifications: disulfide 1-7 (inferred); also: dimer via DIG
B31: SEQ ID NO 107 (peptide)
peptide: Ac-[Pen][NMeR]SDTL[Pen][Phe(4-F)][dE][dK]-NH2
modifications: disulfide 1-7 (inferred); also: dimer via DIG
B32: SEQ ID NO 98 (peptide)
peptide: Ac-[Pen][NMeR]SDTL[Pen][Phe(2-CONH2)][dE][dK]-NH2
modifications: disulfide 1-7 (inferred); also: homodimer linked by DIG
B33: SEQ ID NO 94 (peptide)
peptide: Ac-[Pen][NMeR]SDTL[Pen]WP[dK]-NH2
modifications: disulfide 1-7 (inferred); also: homodimer linked by DIG

Numbered stars: 1 amine (or outer) side, 2 acyl side, 3 side chain; on linkers, the order of the positions; unused ones are H or OH. Bridge positions count the residues as written; N and C are the ends. Square brackets hold non-standard residues; d marks the D form. Ends that are not written are not given here. Phe(4-OMe) = COc1ccc(C[C@H](N[*:1])C(=O)[*:2])cc1; Phe(4-COOH) = N[C@@H](Cc1ccc(C(=O)O)cc1)C(=O)O; Phe(4-tBu) = CC(C)(C)c1ccc(C[C@H](N)C(=O)O)cc1; Phe(2-CONH2) = NC(=O)c1ccccc1C[C@H](N)C(=O)O; Bip = N[C@@H](Cc1ccc(-c2ccccc2)cc1)C(=O)O; Phe(4-F) = N[C@@H](Cc1ccc(F)cc1)C(=O)O; 1Nal = N[C@@H](Cc1cccc2ccccc12)C(=O)O; 2Nal = N[C@@H](Cc1ccc2ccccc2c1)C(=O)O; NMeR = CN[C@@H](CCCNC(=N)N)C(=O)O; hPhe = N[C@@H](CCc1ccccc1)C(=O)O; Tic = O=C(O)[C@@H]1Cc2ccccc2CN1; Cit = NC(=O)NCCC[C@H](N)C(=O)O; Aic = NC1(C(=O)O)Cc2ccccc2C1; Pen = CC(C)(S)[C@H](N)C(=O)O; dNMeK = CN[C@H](CCCCN)C(=O)O; Dab = NCC[C@H](N)C(=O)O

The target in the first test is rh integrin α4β7 (R&D Systems #5397-A30) (human) (UniProt P13612). Briefly: α4β7-MAdCAM competition ELISA.
As a reminder, the IC50 is the concentration that inhibits the measured activity by half. Low readings indicate inhibition by little substance, high ones a need for much substance. In the case of B1, the IC50 is > 25 nM. With B2, the IC50 is < 10 nM.

Turning to B3, the concentration for half-maximal inhibition (IC50) is > 25 nM. B4: the IC50 is > 10 nM.

In a further test the target is α4β7 integrin on human cells (human, UniProt P13612 34-1032; P26010 20-798). Briefly: cell-based or functional assay.
Consider B5, for which the “α4β7 cell (Hu) IC50” value is > 50 nM. With B6, the “α4β7 cell (Hu) IC50” value is ≤ 10 nM. As for B7, the “α4β7 cell (Hu) IC50” value was > 25 nM. The same measure, in the same setting: to B8 belongs > 100 nM.

Consider B9, for which the “α4β7 cell (Hu) IC50” value was > 50 nM.

In the case of B10, the “α4β7 cell (Hu) IC50” value is > 100 nM. Consider B11, for which the “α4β7 cell (Hu) IC50” value is > 500 nM. Still for that read-out and setting: to B12 belongs ≤ 10 nM.

Regarding B13, the “α4β7 cell (Hu) IC50” value is ≤ 10 nM. Same read-out and setting: with B14 the figure was > 100 nM.

For B15, the “α4β7 cell (Hu) IC50” value is > 50 nM. B16: the “α4β7 cell (Hu) IC50” value was > 100 nM.

As for B17, the “α4β7 cell (Hu) IC50” value is > 100 nM. For B18, the “α4β7 cell (Hu) IC50” value was > 100 nM. Still for that read-out and setting: with B19 the figure was > 1000 nM; with B20, > 25 nM.

With B21, the “α4β7 cell (Hu) IC50” value is > 100 nM.

Regarding B22, the “α4β7 cell (Hu) IC50” value is > 50 nM. Consider B23, for which the “α4β7 cell (Hu) IC50” value was > 10 nM.

For B24, the “α4β7 cell (Hu) IC50” value was > 10 nM. In the case of B25, the “α4β7 cell (Hu) IC50” value was > 100 nM. Regarding B26, the “α4β7 cell (Hu) IC50” value is > 50 nM.

Turning to B27, the “α4β7 cell (Hu) IC50” value was ≤ 10 nM. Take B28: the “α4β7 cell (Hu) IC50” value was > 10 nM. Regarding B29, the “α4β7 cell (Hu) IC50” value was > 500 nM.

For the molecule B30, the “α4β7 cell (Hu) IC50” value was > 50 nM. In the case of B31, the “α4β7 cell (Hu) IC50” value was > 25 nM. As to B32, the “α4β7 cell (Hu) IC50” value was > 50 nM. On the same count and under the same terms, with B33 the figure was > 100 nM.
